Experiments:
Format in all cases: biochemical
[1] = ω-Transaminase activity assay (7-aminoheptanol to 7-oxoheptanol); details: for acceptance of 7-aminoheptanol as substrate (formation of L-alanine, RP-HPLC): cell free extract, 10 mM 7-aminoheptanol, 10 mM pyruvate, pH 7.5, 25° C., 4 h, against empty vector control; for acceptance of 7-oxoheptanol as substrate forming 7-aminoheptanol: concluded from reversibility of the ω-transaminase activity (Example 2)
Description: A nucleotide sequence encoding an N-terminal His-tag was added to the Chromobacterium violaceum, Pseudomonas syringae and Rhodobacter sphaeroides genes encoding the ω-transaminases of SEQ ID NOs: 8, 10 and 11, respectively (see FIGS. 7F and 7G) such that N-terminal HIS tagged ω-transaminases could be produced. The modified genes were cloned into a pET21a expression vector under the T7 promoter. Each expression vector was transformed into a BL21[DE3] E. coli host. Each resulting recombinant E. coli strain were cultivated at 37° C. in a 250 mL shake flask culture containing 50 mL LB media and antibiotic selection pressure, with shaking at 230 rpm. Each culture was induced overnight at 16° C. using 1 mM IPTG.
(§1) The pellet from each induced shake flask culture was harvested via centrifugation. Each pellet was resuspended and lysed via sonication. The cell debris was separated from the supernatant via centrifugation and the cell free extract was used immediately in enzyme activity assays.
Enzyme activity assays in the reverse direction (i.e., 7-aminoheptanol to 7-oxoheptanol) were performed in a buffer composed of a final concentration of 50 mM HEPES buffer (pH=7.5), 10 mM 7-aminoheptanol, 10 mM pyruvate, and 100 μM pyridoxyl 5′ phosphate. Each enzyme activity assay reaction was initiated by adding cell free extract of the ω-transaminase gene product or the empty vector control to the assay buffer containing the 7-aminoheptanol and then incubated at 25° C. for 4 h, with shaking at 250 rpm. The formation of L-alanine was quantified via RP-HPLC.

[2] = ω-Transaminase activity assay, reverse direction (7-aminoheptanoate to pimelate semialdehyde); details: cell free extract, 10 mM 7-aminoheptanoate, 10 mM pyruvate, pH 7.5, 25° C., 4 h, against empty vector control
Description: (§2) A sequence encoding an N-terminal His-tag was added to the genes from Chromobacterium violaceum, Pseudomonas syringae, Rhodobacter sphaeroides, and Vibrio Fluvialis encoding the ω-transaminases of SEQ ID NOs: 8, 10, 11 and 13, respectively (see FIGS. 7F and 7G) such that N-terminal HIS tagged ω-transaminases could be produced. Each of the resulting modified genes was cloned into a pET21a expression vector under control of the T7 promoter and each expression vector was transformed into a BL21[DE3] E. coli host. The resulting recombinant E. coli strains were cultivated at 37° C. in a 250 mL shake flask culture containing 50 mL LB media and antibiotic selection pressure, with shaking at 230 rpm. Each culture was induced overnight at 16° C. using 1 mM IPTG.
as §1
Enzyme activity assays in the reverse direction (i.e., 7-aminoheptanoate to pimelate semialdehyde) were performed in a buffer composed of a final concentration of 50 mM HEPES buffer (pH =7.5), 10 mM 7-aminoheptanoate, 10 mM pyruvate and 100 μM pyridoxyl 5′ phosphate. Each enzyme activity assay reaction was initiated by adding cell free extract of the ω-transaminase gene product or the empty vector control to the assay buffer containing the 7-aminoheptanoate and incubated at 25° C. for 4 h, with shaking at 250 rpm. The formation of L-alanine from pyruvate was quantified via RP-HPLC.

[3] = ω-Transaminase activity assay, forward direction (pimelate semialdehyde to 7-aminoheptanoate); details: for acceptance of pimelate semialdehyde as substrate (formation of pyruvate from L-alanine, RP-HPLC): cell free extract, 10 mM pimelate semialdehyde, 10 mM L-alanine, pH 7.5, 25° C., 4 h, against empty vector control; for reversibility of ω-transaminase activity: accepts pimelate semialdehyde and synthesizes 7-aminoheptanoate: conclusion from reverse and forward direction assays
Description: as §2, §1
Enzyme activity in the forward direction (i.e., pimelate semialdehyde to 7-aminoheptanoate) was confirmed for the transaminases of SEQ ID NO 10, SEQ ID NO 11 and SEQ ID NO 13. Enzyme activity assays were performed in a buffer composed of a final concentration of 50 mM HEPES buffer (pH=7.5), 10 mM pimelate semialdehyde, 10 mM L-alanine and 100 μM pyridoxyl 5′ phosphate. Each enzyme activity assay reaction was initiated by adding a cell free extract of the ω-transaminase gene product or the empty vector control to the assay buffer containing the pimelate semialdehyde and incubated at 25° C. for 4 h, with shaking at 250 rpm. The formation of pyruvate was quantified via RP-HPLC.

| acceptance of 7-aminoheptanol as substrate (formation of L-alanine, RP-HPLC) [1] | acceptance of 7-aminoheptanoate as substrate (formation of L-alanine from pyruvate, RP-HPLC) [2] | Molecule | acceptance of 7-oxoheptanol as substrate forming 7-aminoheptanol [1] | acceptance of pimelate semialdehyde as substrate (formation of pyruvate from L-alanine, RP-HPLC) [3] | reversibility of ω-transaminase activity: accepts pimelate semialdehyde and synthesizes 7-aminoheptanoate [3] |
| --- | --- | --- | --- | --- | --- |
| accepted 7-aminoheptanol as substrate | accepted 7-aminoheptanote as substrate | SEQ ID NO 11: Rhodobacter sphaeroides ω-transaminase, Genbank Accession No. ABA81135.1 | accept 7-oxoheptanol as substrate and form 7-aminoheptanol | accepted pimelate semialdehyde as substrate | accepted pimelate semialdehyde as substrate and synthesized 7-aminoheptanoate |
| – | accepted 7-aminoheptanote as substrate | SEQ ID NO 13: Vibrio fluvialis ω-transaminase, Genbank Accession No. AEA39183.1 (protein, listed as Vibrio fluvialis) MNKPQSWEARAETYSLYGFTDMPSLHQRGTVVVTHGEGPYIVDVNGRRYLDANSGLWNMVAGFDHKGLIDAAKAQYERFPGYHAFFGRMSDQTVMLSEKLVEVSPFDSGRVFYTNSGSEANDTMVKMLWFLHAAEGKPQKRKILTRWNAYHGVTAVSASMTGKPYNSVFGLPLPGFVHLTCPHYWRYGEEGETEEQFVARLARELEETIQREGADTIAGFFAEPVMGAGGVIPPAKGYFQAILPILRKYDIPVISDEVICGFGRTGNTWGCVTYDFTPDAIISSKNLTAGFFPMGAVILGPELSKRLETAIEAIEEFPHGFTASGHPVGCAIALKAIDVVMNEGLAENVRRLAPRFEERLKHIAERPNIGEYRGIGFMWALEAVKDKASKTPFDGNLSVSERIANTCTDLGLICRPLGQSVVLCPPFILTEAQMDEMFDKLEKALDKVFAEVA | – | accepted pimelate semialdehyde as substrate | accepted pimelate semialdehyde as substrate and synthesized 7-aminoheptanoate |
| accepted 7-aminoheptanol as substrate | accepted 7-aminoheptanote as substrate | SEQ ID NO 8: Chromobacterium violaceum ω-transaminase, Genbank Accession No. AAQ59697.1 (protein, listed as Chromobacterium violaceum) MQKQRTTSQWRELDAAHHLHPFTDTASLNQAGARVMTRGEGVYLWDSEGNKIIDGMAGLWCVNVGYGRKDFAEAARRQMEELPFYNTFFKTTHPAVVELSSLLAEVTPAGFDRVFYTNSGSESVDTMIRMVRRYWDVQGKPEKKTLIGRWNGYHGSTIGGASLGGMKYMHEQGDLPIPGMAHIEQPWWYKHGKDMTPDEFGVVAARWLEEKILEIGADKVAAFVGEPIQGAGGVIVPPATYWPEIERICRKYDVLLVADEVICGFGRTGEWFGHQHFGFQPDLFTAAKGLSSGYLPIGAVFVGKRVAEGLIAGGDFNHGFTYSGHPVCAAVAHANVAALRDEGIVQRVKDDIGPYMQKRWRETFSRFEHVDDVRGVGMVQAFTLVKNKAKRELFPDFGEIGTLCRDIFFRNNLIMRACGDHIVSAPPLVMTRAEVDEMLAVAERCLEEFEQTLKARGLA | accept 7-oxoheptanol as substrate and form 7-aminoheptanol | – | accepted pimelate semialdehyde as substrate and synthesized 7-aminoheptanoate |

From patent US9617572B2, “Methods of producing 7-carbon chemicals via aromatic compounds” (INVISTA North America S.á r.l., priority 2012, dated 2017)
